Each block holds one binder with its values, some of them ahead of it.
Tests used:
[1] = target: T1, human ROR-1 endogenously expressed on JeKo-1 and MDA-MB-468 cells (human, UniProt Q01973 30-937); assay: flow cytometry, cell binding saturation on ROR-1 positive cells
T1 construct: whole, on cells; also called ROR-1 receptor; receptor tyrosine kinase like orphan receptor 1
Experimental: A cell binding saturation assay was developed to evaluate how well the anti_ROR-1 antibodies developed in Example 28 bound to endogenously expressed extracellular ROR-1 protein on cell lines. […] Cells were then washed and subjected to secondary antibody staining and detection by flow cytometry. Mean fluorescence (MFI) was determined by analysis on cytometer software. […] (See FIG. 27).

Hu/Cy/Rh ROR1-His = target: T2, Hu/Cy/Rh ROR1-His (human/cyno/rhesus, UniProt Q01973 30-403, limits assumed); assay: SPR, purified protein
T2 construct: Purified His-tagged ROR1 protein; also called HUMAN/CYNO/RHESUS ROR-1; not shown: His tag

[2] = target: T1, human ROR-1 endogenously expressed on …; assay: cell-based or functional assay
Mouse ROR1-His = target: T3, Mouse ROR1-His (mouse, UniProt Q9Z139 30-403, limits assumed); assay: SPR, purified protein
T3 construct: Purified His-tagged mouse ROR1 protein; not shown: His tag
T3 sequence (Q9Z139 30-403 limits assumed): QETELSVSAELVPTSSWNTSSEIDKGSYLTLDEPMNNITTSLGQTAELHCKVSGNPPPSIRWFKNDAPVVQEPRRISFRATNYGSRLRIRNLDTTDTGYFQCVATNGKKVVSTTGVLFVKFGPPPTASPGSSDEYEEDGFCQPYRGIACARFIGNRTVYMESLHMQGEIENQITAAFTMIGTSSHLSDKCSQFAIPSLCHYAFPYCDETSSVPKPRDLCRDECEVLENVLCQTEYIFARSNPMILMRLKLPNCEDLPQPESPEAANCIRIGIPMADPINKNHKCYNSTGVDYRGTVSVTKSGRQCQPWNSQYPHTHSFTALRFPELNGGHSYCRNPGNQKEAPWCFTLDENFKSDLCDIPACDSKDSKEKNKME

saturating concentration [1]: 74 nM
B1: ATX-P-875 (antibody, human IgG1, kappa, V domains shown)
VH: not shown
VL: DIQMTQSPSSLSASVGDRVTITCRASQSISSYLNWYQQKPGKAPKLLIYAASSLQSGVPSRFSGSGSGTDFTLTISSLQPEDFATYYCQQYDNLPITFGQGTRLEIKR
notes: Full length IgG (IgG1, kappa) expressed in HEK293; also called mAb A

Kd (Hu/Cy/Rh ROR1-His): 10.9 nM | koff (Hu/Cy/Rh ROR1-His): 0.00295 s⁻¹ | kon (Hu/Cy/Rh ROR1-His): 270000 M⁻¹ s⁻¹ | percent receptor internalization relative to zero hours [2]: ≥ 75% | saturating concentration [1]: 74 nM | Kd (Mouse ROR1-His): 45.3 nM | koff (Mouse ROR1-His): 0.00132 s⁻¹ | kon (Mouse ROR1-His): 29200 M⁻¹ s⁻¹
B2: ATX-P-885 (antibody, human IgG1, kappa, V domains shown)
VH: QVQLQQWGAGLLKPSETLSLTCAVYGGSFSGYYWSWIRQPPGKGLEWIGEINHSGSTNYNPSLKSRVTISVDTSKNQFSLKLSSVTAADTAVYYCAREGVYEDYWGQGTLVTVSS
VL: EIVLTQSPATLSLSPGERATLSCRASQSVSNYLAWYQQKPGQAPRLLIYDAYNRATGIPARFSGSGSGTDFTLTISSLEPEDFAVYYCQQRSNWPLTFGQGTRLEIKR
notes: Full length IgG (IgG1, kappa) expressed in HEK293; also called mAb B

Source: patent US20230330242A1 (published 2023)
